Paper PMC2278140, “Regulation of the cd38 promoter in human airway smooth muscle cells by TNF-α and dexamethasone”

Assays:
Details in all cases: protein: commercial; chain copies: 2; label: 32P 5' end; blunt
[1] = target: T1, glucocorticoid receptor (GR) (human, UniProt P04150 1-777); assay: competition; excess unlabeled self vs labeled GRE4; 20% glycerol, 5 mM MgCl2, 2.5 mM EDTA, 2.5 mM DTT, 250 mM NaCl, 50 mM Tris-HCl pH 7.5, 0.25 mg/ml poly(dI-dC), room temperature 30 min; 0.4 pmol probe in 10 μl, 5 μg extract or 1 μg GR
[2] = target: T1, glucocorticoid receptor (GR); assay: EMSA; 20% glycerol, 5 mM MgCl2, 2.5 mM EDTA, 2.5 mM DTT, 250 mM NaCl, 50 mM Tris-HCl pH 7.5, 0.25 mg/ml poly(dI-dC), room temperature 30 min; 0.4 pmol probe in 10 μl, 5 μg extract or 1 μg GR
[3] = target: T1, glucocorticoid receptor (GR); assay: EMSA; anti-GR supershift; 20% glycerol, 5 mM MgCl2, 2.5 mM EDTA, 2.5 mM DTT, 250 mM NaCl, 50 mM Tris-HCl pH 7.5, 0.25 mg/ml poly(dI-dC), room temperature 30 min; 0.4 pmol probe in 10 μl, 5 μg extract or 1 μg GR
[4] = target: T1, glucocorticoid receptor (GR); assay: competition; excess unlabeled vs labeled GRE consensus; 20% glycerol, 5 mM MgCl2, 2.5 mM EDTA, 2.5 mM DTT, 250 mM NaCl, 50 mM Tris-HCl pH 7.5, 0.25 mg/ml poly(dI-dC), room temperature 30 min; 0.4 pmol probe in 10 μl, 5 μg extract or 1 μg GR
[5] = target: T1, glucocorticoid receptor (GR); assay: competition; excess unlabeled self vs labeled GRE3; 20% glycerol, 5 mM MgCl2, 2.5 mM EDTA, 2.5 mM DTT, 250 mM NaCl, 50 mM Tris-HCl pH 7.5, 0.25 mg/ml poly(dI-dC), room temperature 30 min; 0.4 pmol probe in 10 μl, 5 μg extract or 1 μg GR

T1 sequence (P04150 whole entry): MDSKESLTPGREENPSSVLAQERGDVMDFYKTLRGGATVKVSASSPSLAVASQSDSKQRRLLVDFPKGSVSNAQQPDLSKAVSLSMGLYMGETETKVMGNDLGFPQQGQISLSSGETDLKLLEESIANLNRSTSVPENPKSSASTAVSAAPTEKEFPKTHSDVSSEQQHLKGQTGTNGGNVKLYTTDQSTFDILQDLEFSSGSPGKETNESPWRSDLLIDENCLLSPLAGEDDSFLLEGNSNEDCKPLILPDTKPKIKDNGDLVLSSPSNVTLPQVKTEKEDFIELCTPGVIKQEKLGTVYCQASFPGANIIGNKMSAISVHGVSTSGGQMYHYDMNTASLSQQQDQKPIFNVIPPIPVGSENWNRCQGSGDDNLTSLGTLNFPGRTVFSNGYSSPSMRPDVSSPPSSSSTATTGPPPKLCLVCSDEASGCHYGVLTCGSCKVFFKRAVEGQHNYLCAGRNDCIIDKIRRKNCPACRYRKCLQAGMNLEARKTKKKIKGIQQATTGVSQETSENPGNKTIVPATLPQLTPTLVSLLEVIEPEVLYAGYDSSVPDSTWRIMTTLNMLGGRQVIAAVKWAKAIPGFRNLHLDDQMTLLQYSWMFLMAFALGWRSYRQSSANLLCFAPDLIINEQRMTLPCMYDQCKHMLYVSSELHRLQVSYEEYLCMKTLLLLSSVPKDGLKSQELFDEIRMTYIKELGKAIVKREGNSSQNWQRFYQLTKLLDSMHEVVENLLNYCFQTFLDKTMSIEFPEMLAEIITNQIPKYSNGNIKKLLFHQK

B1: GRE4 (dsDNA)
DNA 1: GCCATTGTAACTGTTCTCCATCCTTATC
DNA 2: GATAAGGATGGAGAACAGTTACAATGGC
binding result [1]: binds

B2: GRE1 (dsDNA)
DNA 1: AATGTCACAGATGTTCTCTTAATAAAGA
DNA 2: TCTTTATTAAGAGAACATCTGTGACATT
binding result [2]: binds

B3: GRE consensus (dsDNA)
DNA 1: TAGAGGATCTGTACAGGATGTTCTAGAT
DNA 2: ATCTAGAACATCCTGTACAGATCCTCTA
binding result [3]: binds

B4: GRE2 (dsDNA)
DNA 1: TTCCGAACTTCTGTTCTGTTTCCCTCAA
DNA 2: TTGAGGGAAACAGAACAGAAGTTCGGAA
binding result [4]: no binding

B5: GRE3 (dsDNA)
DNA 1: AAGCACTGCCATGTTCTCACTTATAAGT
DNA 2: ACTTATAAGTGAGAACATGGCAGTGCTT
binding result [5]: binds
